# Measurements: PMC10855774, “Role of Spexin in White Adipose Tissue Thermogenesis under Basal and Cold-Stimulated Conditions” (International Journal of Molecular Sciences, 2024)
# Experiments:
# [1] = Adipose tissue depot mass percentage; assay type: in vivo, mice; conditions: SPX 29 µg/kg/day ten days, cold (4 °C); SPX-C relative to CTR and CTR-C; C × S p < 0.05
# Procedure: (§1) Normal adult male C57BL/6 mice (four months of age) were kept in a temperature-controlled environment (20–22 °C and a fixed 12 h light/12 h dark cycle; lights on at 07:00 h) and fed ad libitum with Purina commercial rat/mouse chow (Ganave, Buenos Aires, Argentina, L0723/1). Mice were injected with SPX or PBS (29 µg/kg/day, Tocris, Bristol, UK) for ten days (the SPX and CTR groups, respectively). On the third day of the protocol, each group was subdivided into two other groups: one exposed to cold (4 °C, CTR-C and SPX-C, n = 12 mice for each group) and another one housed at RT (CTR and SPX, n = 15 mice for each group) (Figure 1). Food intake and body weight were measured every day. On the experimental day (day 10), the mice were euthanized under non-fasting conditions (08:00 to 09:00 h), and their trunk blood was collected; plasma samples were then frozen (–80 °C) until the metabolite measurement. Inguinal AT (IAT, subcutaneous depot), epididymal AT (EAT, visceral depot), and brown AT (BAT, subcutaneous depot) were aseptically dissected and weighed. These depots were kept at –80 °C for further procedures. Animals were euthanized according to protocols for animal use, in agreement with the NIH guidelines for the care and use of experimental animals. All experiments were approved by our Institutional Animal Care Committee (Approval code: 6NE-2023).
# pgc1α = pgc1α mRNA expression in AT depots (qRT-PCR); assay type: in vivo, mice
# Procedure: as §1
# (§2) Total RNA was isolated from cells by the Trizol extraction method (Invitrogen, Life Technology, Waltham, MA, USA) and reverse-transcribed using random primers (250 ng) and RevertAid Reverse Transcriptase (200 U/µL, Thermo Scientific, Waltham, MA, USA). […] The expression levels were analyzed for β-actin (βactin, […] gene), Uncoupling Protein 1 (ucp1), proliferator-activated receptor gamma coactivator-1 alpha (pgc1α), cytochrome-c oxidase subunit 8b (cox8b), galanin receptors 2 and 3 (galr2 and galr3, respectively), and Spexin (spx). […] The relative changes in the expression level of each gene (ΔΔCt) were calculated by the ΔCt method.
# ucp1 [2] = experiment: UCP1 immunohistochemistry of EAT and IAT; assay type: in vivo, mice; conditions: SPX groups vs. CTR groups; representative of three experiments
# Procedure: as §1, with “6NE-2023). […]” for “6NE-2023).”
# β3-adrenergic receptors = conditions: obese female mice treated with SPX for 50 days; cited from earlier work
# Text: (§3) Little is known about the role of SPX in thermogenesis. […] In the liver, results are contradictory. While one study has shown that SPX decreases pgc1α expression both in vivo and in vitro [26], another study has shown the opposite effect. Thus, the aim of this study was to evaluate the role of SPX during WAT thermogenesis under both room temperature (RT) and cold-stimul ...
# ucp1, pgc1α, and prdm16 = conditions: obese female mice treated with SPX for 50 days; cited from earlier work
# Text: as §3
# ucp1 [3] = experiment: UCP1 protein expression in EAT and IAT (Western blot); assay type: in vivo, mice
# Procedure: as §1, with “Inguinal AT (IAT, subcutaneous depot), epididymal AT (EAT, visceral depot), and brown AT (BAT, subcutaneous depot) were aseptically dissected and weighed. These depots were kept at –80 °C for further procedures. Animals were euthanized according to protocols for animal use, in agreement with the NIH guidelines for the care and use of experimental animals. All experiments were approved by our Institutional Animal Care Committee (Approval code: 6NE-2023).” left out
# For protein analysis by Western blot, IAT and EAT were lysed in a RIPA buffer supplemented with a protease and phosphatase inhibitor cocktail. Protein contents were quantified with the bicinchoninic acid method (Thermo Scientific, Pierce™ BCA Protein Assay Kit). […] Finally, relative protein levels were calculated using Image J Fiji software 1.54f.
# [4] = Daily caloric intake and body weight of SPX-treated mice at RT or cold; assay type: in vivo; conditions: for body weight change: C × S p < 0.05
# Procedure: as §1
# spx = spx mRNA expression in AT depots (qRT-PCR); assay type: in vivo, mice
# Procedure: as §1, §2
# ucp1 [5] = experiment: ucp1 mRNA expression in AT depots (qRT-PCR); assay type: in vivo, mice
# Procedure: as §1
# Total RNA was isolated from cells by the Trizol extraction method (Invitrogen, Life Technology, Waltham, MA, USA) and reverse-transcribed using random primers (250 ng) and RevertAid Reverse Transcriptase (200 U/µL, Thermo Scientific, Waltham, MA, USA). The cDNA (2 μL) was amplified with HOT FIRE Pol EvaGreenqPCR Mix Plus (Solis BioDyne, Tartu, Estonia) containing 0.5 μM of each specific primer, using a Rotor-Gene Q (Qiagen, Hilden, Germany). PCR efficiency was near 1. The expression levels were analyzed for β-actin (βactin, […] gene), Uncoupling Protein 1 (ucp1), proliferator-activated receptor gamma coactivator-1 alpha (pgc1α), cytochrome-c oxidase subunit 8b (cox8b), galanin receptors 2 and 3 (galr2 and galr3, respectively), and Spexin (spx). The designed primers are shown in alphabetical order in Table 1. The relative changes in the expression level of each gene (ΔΔCt) were calculated by the ΔCt method.
# [6] = cold-stimulated conditions (7 days 4 °C), SPX-C vs. CTR-C p < 0.0001
molecule,measurement,setting,value
"Spexin (peptide, UniProt Q9BT56 27-116, looked up, Spexin, novel adipokine, a peptide of 14 amino acids of the galanin family; purchased from Tocris) Spexin: APQRLLERRNWTPQAMLYLKGAQGRRFISDQSRRKDLSDRPLPERRSPNPQLLTIPEAATILLASLQKSPEDEEKNFDQTRFLEDSLLNW",BAT mass percentage,[1],intermediate value
same,pgc1α mRNA expression in BAT,"pgc1α; RT and cold, Supplementary Figure S2b",no changes were observed
same,pgc1α mRNA expression in EAT,"pgc1α; cold conditions, C p < 0.0001",increased in EAT for both the control and treated groups
same,pgc1α mRNA expression in IAT,"pgc1α; cold, SPX-C vs. CTR-C, p < 0.001",inhibited due to SPX in cold conditions
same,"UCP1 expression by immunohistochemistry, EAT and IAT",ucp1 [2],lower than in the CTR groups
same,immunodetection of β3-adrenergic receptors in gonadal WAT,β3-adrenergic receptors,lower immunodetection
same,"ucp1, pgc1α, and prdm16 expressions in BAT","ucp1, pgc1α, and prdm16",decreased
same,UCP1 protein levels in EAT (Western blot),"ucp1 [3]; basal and cold conditions, p < 0.05, n = 4–6",reduced the UCP1 protein levels at both basal and cold conditions
same,UCP1 protein levels in IAT (Western blot),"ucp1 [3]; cold, SPX-C intermediate between CTR and CTR-C, C × S p < 0.05",partial decrease in UCP1 levels
same,correlation between initial body weight and body weight loss after SPX treatment,"[4]; SPX and SPX-C mice, basal and cold-stimulated conditions, Pearson correlation, p < 0.01",significant positive correlation
same,caloric intake,"[4]; male C57BL/6 mice, SPX 29 µg/kg/day for ten days, RT or cold (4 °C) from day 3, vs. CTR, repeated measures ANOVA, n = 6–9",no differences were observed due to the SPX treatment
same,body weight change,"[4]; male C57BL/6 mice, SPX 29 µg/kg/day for ten days, basal conditions (RT), SPX vs. CTR",lost body weight vs. CTR ones
same,body weight change,"[4]; male C57BL/6 mice, SPX 29 µg/kg/day for ten days, cold (4 °C) from day 3, SPX-C vs. CTR-C",lost less weight than their CTR-C counterparts
same,spx mRNA expression in EAT,spx; RT and cold,No changes
same,spx mRNA expression in BAT,"spx; RT and cold, Supplementary Figure S3",No changes
same,spx mRNA expression in IAT,"spx; cold conditions, C × S p < 0.001",lower spx expression than CTR mice
same,ucp1 mRNA expression in BAT,"ucp1 [5]; RT and cold, C p < 0.001, Supplementary Figure S2a",increased under cold exposure despite the SPX treatment
same,ucp1 mRNA expression in IAT and EAT,"ucp1 [5]; RT, SPX vs. CTR","SPX inhibition was also significant, but only when a t-test was performed"
same,ucp1 mRNA expression in EAT,ucp1 [5]; [6],ucp1 inhibition
same,ucp1 mRNA expression in IAT,ucp1 [5]; [6],ucp1 inhibition
